Measurements published in the nanobody polyreactivity screen of Harvey et al. (2022).

Assay: yeast display, Sf9 membrane polyspecificity reagent, FACS + sequencing; frameworks hold sequencing errors
Outline: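 A nanobody's polyreactivity label depends on the gate it was sorted from. Yeast display cells were stained with 10% biotinylated, detergent-solubilized Sf9 membrane reagent for 1 hour at 4 °C, enriched on streptavidin microbeads and sorted by FACS. The low and high (top ~1%) gates were set on anti-HA fluorescence for expression and streptavidin fluorescence for reagent binding.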

Sequence	polyreactivity (PSR sort gate)
QVQLVESGGGLVQAGGSLRLSCAASGSIFGYNSMGWDRQAAGKERELVAAIYSGGNTYYADSVKGRFTISRDNAKNTVYLQMNSLKPEDTAVYYCAADGYDDSTSRWYEYWGQGSQVTVSS	low polyreactivity
QVQLVESGGGLVQAGGSLRLSCAASGSIFGYNTMGWYRKAPGKERELVAAISYRGGSTSADSVKGRFSISRDNAKNTVYLQMNSRKPEDTAVYSCATRSIVGYRYSGYDYWGQATQVTVSS	high polyreactivity
QVQLVESGGGLVQAGGSLRLSCAASGSIFGYNTMGWYRQAPGKERELVAAISWNGGNTYYADSVKGRFTISRDNAKNTVYLQMNSLKPEDTEVYYCNARTRSRSRGFDSWGQGTQVTVSS	high polyreactivity
QVQLVESGGGLVQAGGSLRLSCAASGSIFGYNVMGWYRQAPGKERELVATISSSGGTNYADSVKGRFTISRDNAKNTVYLQMNSLKPEDTAVYYCNADVLDGGYDYWGQGTQVTVSS	low polyreactivity
QVQLVESGGGLVQAGGSLRLSCAASGSIFGYSAMGWYRQAPGKERELVAAIDSGGSTYYADSVKGRFTISRDNAKNTVYLQMNSLKPQDTAVYYCAAGVSSFSPYDSWGQGTQVTVSS	low polyreactivity
QVQLVESGGGLVQAGGSLRLSCAASGSIFGYYAMGWYRQAPGKERELVAAISGIGGSTYYADSVKGRFTISRDNAKNTVYLQMNSLKPEDTAVYYCAKARPHVGGGGDYWGQGTQVTVSS	low polyreactivity
QVQLVESGGGLVQAGGSLRLSCAASGSIFGYYAMGWYRQAPGKERELVAAISGSGGSTYYADSVKGRFTISRDNAKYTVYLQMNRLKPEDTAVYYCAAAYHGRHYYWGQGTQVTVSS	high polyreactivity
QVQLVESGGGLVQAGGSLRLSCAASGSIFGYYAMGWYRQAPGKERELVADITVRGGSTYYADSVNGRFTISRDNAKNTVYLQMNSLKPEDTAVYYCAKRFKYIYYWGQGTQVTVSS	high polyreactivity
QVQLVESGGGLVQAGGSLRLSCAASGSIFGYYAMGWYRQAPGKERELVASITRSGGSTYYADSVKGRFTISRDNAKNTVYLQMNSLQPEDTAVYYCAVARYRHGRSGTYDVTGEYWGQGTQVTVSS	high polyreactivity
QVQLVESGGGLVQAGGSLRLSCAASGSIFGYYTKVWYRQARGKEREFVAAINTSGGSTYADSVKGRCTISRDNAKNTVYLQMNSLKPEDTAVYYCAADGYYEYTWGEYDSWGQGTQVTVSS	low polyreactivity
QVQLVESGGGLVQAGGSLRLSCAASGSIFGYYTMGWYRPAPGKERELVAAITSGGSTNYADSVKGRFTISRDNAKNTVYLQMNSLKPEDTAVYYCAKVSYYPWRYDYWGQGTQVTVSS	low polyreactivity
QVQLVESGGGLVQAGGSLRLSCAASGSIFGYYTMGWYRQAPGKERELVAAISQGGARTYYADSVKGRFTISRDNAKNTVYLQMNSLKPEDTAVYYCNAVSPAGYWFDYWGQGTQVTVSS	high polyreactivity
QVQLVESGGGLVQAGGSLRLSCAASGSIFGYYVMGWYRPAPGKERELVAGISYSGGRTYYADSVKGRFTISRDNAKNTVYLQMNSLQPEDTAVYYCAAEGTTSWWVKYGYWGQGTQVTVSS	low polyreactivity
QVQLVESGGGLVQAGGSLRLSCAASGSIFHANAMGWYRQAPGKERELVAAISQSCDTTYYADSVKGRFTISRDNAKNTVYLQMNSLKPEDTAVYYCAAEEGYGAFWYDYWGQGTQVTVSS	high polyreactivity
QVQLVESGGGLVQAGGSLRLSCAASGSIFHANAMGWYRQAPGKERELVAVISQGGGSTYYADSVKGRFTISRDNAKNTVYLQMNSLKPEDTAVYYCAAYYYYSAYGDDYWGQGTQVTVSS	high polyreactivity
QVQLVESGGGLVQAGGSLRLSCAASGSIFHDNAKGWYRQAPGKERELVAAINRGGSTHYADSVKGRFTISRDNAKNTVYLQMNSLKPEDTAVYYCNTVGRGYDYDYWGQGTQVTVSS	low polyreactivity
QVQLVESGGGLVQAGGSLRLSCAASGSIFHNNAMGWYRQAPGKERELVASITSRGGSTYYADSVKGRFTISRDNAKNTVYLQMNSLKPEDTAVYYCAARPYARVKTHGYWGQGTQVTVSS	low polyreactivity
QVQLVESGGGLVQAGGSLRLSCAASGSIFHPNAMGWYRQAPGKERELVAAITKSGGSTYYADSVKGRFTISRDNAKNTVYLQMNSLKPEDTAVYYCNALRYRRVGTLGYDYWGQGTQVTVSS	high polyreactivity
QVQLVESGGGLVQAGGSLRLSCAASGSIFHPYAMGWYRQAPGKERELVAAISKSGGNTYYADSVKGRFTISRDNAKNTVYLQMNSLKPEDTAVYYCAALDYWGQGTLVTVSS	low polyreactivity
QVQLVESGGGLVQAGGSLRLSCAASGSIFHVNAMGWYRQAPGKERELVAGISDGGSTYYADSVKGRFTISRDNAKNTVYLQMNSLKPEDTAVYYCSADDGYTYYWAGYDSWGQGTQVTVSS	low polyreactivity
QVQLVESGGGLVQAGGSLRLSCAASGSIFHWYVMGWYRQAPGKERELVASISWSSGSTYADSVKGRFTISRDNGKNTVYLQMNSLKPEDTAVYFCNAKTYYPPFGYWGQGTQVTVSS	low polyreactivity

Sequence	polyreactivity (PSR sort gate)
QVQLVESGGGLVQAGGSLRLSCAASGSIFHYNTMGWYRQAPGKERELVAAITYSGGSTYYADSVKGRYTISRDNAKNPVYLQMNSLKPEDTAVYYCAVRGPGTSTYWYHEYEYWGQGTQVTVSS	high polyreactivity
QVQLVESGGGLVQAGGSLRLSCAASGSIFHYYTMGWYRQAPGKERELVAGISRSGTSTFYADSVKGRFTISRDNAKKTVYLQMNSLKPEDTAVSYCNAYSPGSYYYWPYDYWGQGTQVTVSS	high polyreactivity
QVQLVESGGGLVQAGGSLRLSCAASGSIFIFNAMVWYRQAPGKEREFVARIRRDSSTYYADSVKGRFTISRDNAKNTVYLQMNSLKPEDTAVYYCAAKRVYRRVELNSWGQGTQVTVSS	low polyreactivity
QVQLVESGGGLVQAGGSLRLSCAASGSIFIGYAMGWYRQAPGKERELVAAITSGGSTYADSVKGRFTISRDNAKNTVYLQMNSLKPEDTAVYYCAAPRTYYSELTSPYDYWGQGTQVTVSS	low polyreactivity
QVQLVESGGGLVQAGGSLRLSCAASGSIFILYAMVWYRQAPGKERELVAAISSTGTTYYADSVKGRFTISRDNAKNTVYLQMNSLKPEDTAVYYCATDEPSSGRTPYDYWGQGTQVTVSS	low polyreactivity
QVQLVESGGGLVQAGGSLRLSCAASGSIFINNAMGWYRQATGKERELVSAIRRGDSTTYADSVKGRFTISRDNAKNTVYLQMNSLKPEDTAVYYCATSPWWYGYAAYGMDYWGQGTQVTVSS	low polyreactivity
QVQLVESGGGLVQAGGSLRLSCAASGSIFIPNAMGWYRQAPGKERELVAAITSGGRTYYADSVKGRFTISRDNAKNTVYLQMNSLKPEDTAVYYCAARSGYRYVESDYWGQGTQVTVSS	high polyreactivity
QVQLVESGGGLVQAGGSLRLSCAASGSIFIPYAMGWYRQAPGKERDLVAAIRYSGASTYYADSVKGRFTISRDNAKNTVFLQMNSLKPEDTAVYYCAARVVDQEVGRPYYYWGQGTQVTVSS	high polyreactivity
QVQLVESGGGLVQAGGSLRLSCAASGSIFIQYAMGWYRQAPGKERELVAAITSGDDTYYADSVKGRFTISRDNAKNTVYLQMNSLKPEDTAVYYCAKRAHFSSARHVYYIYDYWGQGTQVTVSS	low polyreactivity
QVQLVESGGGLVQAGGSLRLSCAASGSIFIRYVMGWYRQAPGKERELVAAITGSGSRTYYADSVKGRFTISRDNAKNTVYLQMNSLKPEDTAVYYCAADWTKSRRYYWGQGTQVTVSS	high polyreactivity
QVQLVESGGGLVQAGGSLRLSCAASGSIFISYAMGWYRQAPGKESELVDAINYSGGSTYYADSVKGRFTISRDNAKNTVYLQMNSLKPEDTAVYYCAKRSTYRYYGYKLRDYWGQGTQVTVSS	low polyreactivity
QVQLVESGGGLVQAGGSLRLSCAASGSIFITYAMGWYRQAPGKERELVAAIRDSGDRTYYADSVKGRFTISRDNAKNTVYLQMNSLKPEDTEVYYCNALWQEPLKYDYWGQGTQVTVSS	low polyreactivity
QVQLVESGGGLVQAGGSLRLSCAASGSIFIVNAMGWYRPAPGKERELVAAISRSGGRTYYADSVKVRFTISRDNAKNTVYLQMNSLKPEDTAVYYCNARSRARKVAYDYWGQGTQVTVSS	high polyreactivity
QVQLVESGGGLVQAGGSLRLSCAASGSIFIWYAMGWSRQAPGKEREFVAAITYTGTSTYYADSVKGRFTISRDNAKNTVYLQMNSLKPEDTAVYYCAADKSTHPFPSDPGYGYWGQGTQVTVSS	low polyreactivity
QVQLVESGGGLVQAGGSLRLSCAASGSIFIWYAMGWYRQAPGKERELVAAITSSGSTNYADSVKGRFTISRDNAKNTVYLQMNSLKPEDTAVYYCADEYTYYTYNLNYWGQGTQVTVSS	low polyreactivity
QVQLVESGGGLVQAGGSLRLSCAASGSIFIWYTMGWYRQAPGKERELVAAIDWNSGSTYYADSVKGRFTISRDNAKNTVYLQMNSLKPEDTAVYYCAATTFSGWFIFYYWGQGTQVTVSS	low polyreactivity
QVQLVESGGGLVQAGGSLRLSCAASGSIFIYYAMGWKRQAPGKERELVAAISWRGGGTYYADSVKGRFTISRDNAKNTVYLQMNSLKPEDTAVYYCAADFYDPFDYWGQGTQVTVSS	low polyreactivity
QVQLVESGGGLVQAGGSLRLSCAASGSIFIYYAMGWYRQAPGKERELVAAINIGGSTYYADSVKGRFTISRDNAKNTVYFQMNSLKPEDTAVYYCNAATWYRVYPYYIIFDYWGQGTQVTVSS	low polyreactivity
QVQLVESGGGLVQAGGSLRLSCAASGSIFKANAMGWYRQAPGKERELVATISTSSGGTYYADSVKGRFTISRDNAKNTVYLQMNSLKPEDTAVYYCAALTYPPFYWGQGTQVTVSS	high polyreactivity
QVQLVESGGGLVQAGGSLRLSCAASGSIFKFYAMGWYRQAPGKERELVAAISSSGTSTYYADSVKGRFTISRDNAKNTVYLQMNSLKPEDTAVYYCAARGGVQNEVKGSPYYYWGQGTQVTVSS	high polyreactivity
